From patent US20250382588A1, “CHIMERIC AAV AND USES THEREOF” (priority 2023, published 2025)
Changes are numbered by the printed parent chain. Names may count otherwise.

B1: AAV8R4: AAV8R capsid mutant R490Q, SEQ ID NO: 5 (protein)
chain: MAADGYLPDWLEDNLSEGIREWWALKPGAPKPKANQQKQDDGRGLVLPGYKYLGPFNGLDKGEPVNAADAAALEHDKAYDQQLQAGDNPYLRYNHADAEFQERLQEDTSFGGNLGRAVFQAKKRVLEPLGLVEEGAKTAPGKKRPVEPSPQRSPDSSTGIGKKGQQPARKRLNFGQTGDSESVPDPQPLGEPPAAPSGVGPNTMAAGGGAPMADNNEGADGVGSSSGNWHCDSTWLGDRVITTSTRTWALPTYNNHLYKQISNGTSGGATNDNTYFGYSTPWGYFDFNRFHCHFSPRDWQRLINNNWGFRPKRLSFKLFNIQVKEVTQNEGTKTIANNLTSTIQVFTDSEYQLPYVLGSAHQGCLPPFPADVFMIPQYGYLTLNDGSQAVGRSSFYCLEYFPSQMLRTGNNFQFTYTFEDVPFHSSYAHSQSLDRLMNPLIDQYLYYLSRTQTTGGTANTQTLGFSQGGPNTMANQAKNWLPGPCYRQQQVSTTTGQNNNSNFAWTAGTKYHLNGRNSLANPGIAMATHKDDEERFFPSNGILIFGKQNAARDNADYSDVMLTSEEEIKTTNPVATEEYGIVADNLQRGNLADQDYTKTARQAATADVNSQGALPGMVWQNRDVYLQGPIWAKIPHTDGNFHPSPLMGGFGLKHPPPQILIKNTPVPADPPTTFNQSKLNSFITQYSTGQVSVEIEWELQKENSKRWNPEIQYTSNYYKSINVDFAVNTEGVYSEPRPIGTRYLTRNL
B2: AAV8R7: AAV8R capsid mutant A606S, SEQ ID NO: 8 (protein)
chain: B1 chain with Q490R, A606S
B3: AAV8R5: AAV8R capsid mutant V125I, SEQ ID NO: 6 (protein)
chain: B1 chain with V125I, Q490R
B4: AAV8R8: AAV8R capsid mutant T495A, SEQ ID NO: 9 (protein)
chain: B1 chain with Q490R, T495A
B5: AAV8R13: AAV8R capsid mutant V125I + F536Y + T495A, SEQ ID NO: 14 (protein)
chain: B1 chain with V125I, Q490R, T495A, F536Y
B6: AAV8R9: AAV8R capsid mutant V125I + F536Y, SEQ ID NO: 10 (protein)
chain: B1 chain with V125I, Q490R, F536Y
B7: AAV8R2: AAV8R capsid mutant N411S, SEQ ID NO: 3 (protein)
chain: B1 chain with N411S, Q490R
B8: AAV8R6: AAV8R capsid mutant F536Y, SEQ ID NO: 7 (protein)
chain: B1 chain with Q490R, F536Y
B9: AAV8R3: AAV8R capsid mutant Y447F, SEQ ID NO: 4 (protein)
chain: B1 chain with Y447F, Q490R
B10: AAV8R11: AAV8R capsid mutant V125I + T495A, SEQ ID NO: 12 (protein)
chain: B1 chain with V125I, Q490R, T495A
B11: AAV8R1: AAV8R capsid mutant V183E, SEQ ID NO: 2 (protein)
chain: B1 chain with V183E, Q490R
B12: AAV8R14: AAV8R capsid mutant V125I + A606S + T495A, SEQ ID NO: 15 (protein)
chain: B1 chain with V125I, Q490R, T495A, A606S
B13: AAV8R10: AAV8R capsid mutant V125I + A606S, SEQ ID NO: 11 (protein)
chain: B1 chain with V125I, Q490R, A606S

Assays:
Format in all cases: in vivo, mice
substantia nigra (SN) = assay: Promoter activity driving EYFP reporter expression after AAV injection into the SNr: substantia nigra; conditions: numbers of YFP-expressing neurons per animal
Excerpt: (§1) Brain profiles of two epigenetic marks for enhancers and promoters, monomethylation of histone H3 lysine 4 (H3K4me1) and acetylation of histone H3 lysine 27 (H3K27ac) were checked and approximately 2 kilobase-long sequences around the transcriptional start site (TSS) that have high levels of H3K4me1 and/or H3K27ac were identified in mouse brain. Homologous sequences at equivalent positions of the human genome were then cloned onto an AAV backbone, and the activity of the homologous sequences in directing reporter expression was tested in mice after injections of AAVs into the SNr (FIG. 3A-C, TABLE 3).
Region-selective promoter identification was based on the Allen Brain Atlas in situ hybridization (ISH) data (mouse.brain-map.org/). Genes highly expressed in the striatum but not in other parts of the basal ganglia were first selected as candidates. H3K4me1 and H3K27ac are known epigenetic marks for active promoters and enhancers. Thus, we identified regions with high levels of these two chromatin modification marks in mouse brain as candidate regions based on the ENCODE annotation data on the UCSC Genome Browser (genome.ucsc.edu/). To further extend the promoters' potential application in primates, the sequences of interest were PCR-amplified from human genomic DNA. Based on the above strategies, GPR88 was selected as a candidate gene. The nucleotide sequence upstream of the start codon with high H3K4me1 and H3K27ac levels was selected as the candidate promoter sequence. G88P2 (2259 bp) was cloned with the following primers: 5′-[…]-3′ (SEQ ID NO: 36), 5′-[…]-3′ (SEQ ID NO: 58). G88P3 (1395 bp) and G88P7 (896 bp) were further shortened by subcloning. […]
Images were acquired using a confocal microscope (Carl Zeiss, LSM880) and an Axiolmager.Z1 microscope with apotome (Carl Zeiss). […] Every sixth section was analyzed, and numbers of EYFP+ cells were multiplied by six to acquire the approximate total number and mean number of cells per animal. Images were processed using ImageJ (NIH, USA), and final quantifications were independently performed manually by two blinded experimenters.

[1] = system: MSNs in the striatum (STR); assay: Promoter activity driving EYFP reporter expression after AAV injection into the SNr: striatum; conditions: numbers of YFP-expressing neurons per animal
Excerpt: as §1
G88P2 (2259 bp) was cloned with the following primers: 5′-[…] (SEQ ID NO.: 36) and 3-[…] (SEQ ID NO.: 37). To increase the payload of AAV genome, the G88P2 promoter was shorted using restriction enzymes, and two derivatives, G88P3 and G88P7, were made which were 1395-bp and 896-bp long, respectively (FIG. 3A-3C). Comparative efficiency in labeling MSNs for the two shortened promoters was observed. For mice that received viral injections into the SNr, viruses expressing EYFP driven by G88P3 and G88P7 promoters labeled 3.7±0.66×104 and 3.95±0.73×104 MSNs per mouse, respectively, compared to 1.61±0.16×104 labeled MSNs by hSyn promoter (FIG. 4B).
Region-selective promoter identification was based on the Allen Brain Atlas in situ hybridization (ISH) data (mouse.brain-map.org/). Genes highly expressed in the striatum but not in other parts of the basal ganglia were first selected as candidates. H3K4me1 and H3K27ac are known epigenetic marks for active promoters and enhancers. Thus, we identified regions with high levels of these two chromatin modification marks in mouse brain as candidate regions based on the ENCODE annotation data on the UCSC Genome Browser (genome.ucsc.edu/). To further extend the promoters' potential application in primates, the sequences of interest were PCR-amplified from human genomic DNA. Based on the above strategies, GPR88 was selected as a candidate gene. The nucleotide sequence upstream of the start codon with high H3K4me1 and H3K27ac levels was selected as the candidate promoter sequence. G88P2 (2259 bp) was cloned with the following primers: 5′-[…]-3′ (SEQ ID NO: 36), 5′-[…]-3′ (SEQ ID NO: 58). G88P3 (1395 bp) and G88P7 (896 bp) were further shortened by subcloning.
Promoters were subcloned into a pAAV-hSyn-EYFP vector derived from pAAV-hSyn-EGFP (Addgene, 50465) to replace the hSyn promoter by using appropriate restriction enzyme combinations. To generate pAAV-G88P7-DIO-tdTomato, a DIO-tdTomato cassette was subcloned into pAAV-G88P7-EYFP to replace EYFP by restriction enzyme digestion. To generate pAAV-G88P3-HA-hM3Dq, promoter G88P3 was subcloned into pAAV-hSyn-HA-hM3Dq-IRES-mCitrine (Addgene, 50463) via the EcoRI/BamHI restriction sites to replace the hSyn promoter and IRES-mCitrine was removed afterwards by restriction enzyme digestion. To generate pAAV-G88P3-HA-hM3Dq-2A-EYFP, a 2A-EYFP fragment was subcloned into pAAV-G88P3-HA-hM3Dq after hM3Dq. […]
Images were acquired using a confocal microscope (Carl Zeiss, LSM880) and an Axiolmager.Z1 microscope with apotome (Carl Zeiss). […] Every sixth section was analyzed, and numbers of EYFP+ cells were multiplied by six to acquire the approximate total number and mean number of cells per animal. […]

[2] = system: striatal D1 MSNs (striatonigral projection neurons); assay: Retrograde labeling of striatonigral projection neurons after AAV injection into the SNr; conditions: AAV8R capsid mutants; numbers of labeled neurons per animal
Protocol: To improve efficiency, multiple rounds of mutations of AAV capsids were performed on a series of different serotypes. Mutations were introduced at three sites in the AAV8 capsid protein to make AAV8R, including N385D, insertion of […] (SEQ ID NO: 31) at position 588, and TS711-712IN. Two additional mutations of V183E and N411S were incorporated into the AAV8R12 capsid protein (FIG. 1A). The labeling pattern of the AAV8R12 capsid and G88 promoter combination was determined.
First, the polypeptide fragment RGNLADODYTKTARQAATAD (SEQ ID NO.: 31) was inserted at the N587-R588 position; two other point mutations of the AAV2 Cap protein were made to develop rAAV2-retro. Similar mutations were then placed at equivalent positions for four other AAV serotypes (FIGS. 1A-IC and 25, TABLE 1), AAV1/5/6/8 (FIG. 1A). […] When administered into the SNr, 4.86±0.22 times EYFP positive MSNs in mice infected by AAV8R-hSyn-EYFP were observed as compared to those infected by rAAV2-retro-hSyn-EYFP (FIG. 2A-2C).
Baseline infectivity of rAAV2-retro was approximately 0.2±0.03×10^4 cells per striatal hemisphere (using a hSyn promoter) (TABLE 2). […] Compared to the current standard retrograde AAV, rAAV2-retro, AAV8R12 labeled 7.72±0.78-times more MSNs after nigral delivery (FIG. 2B-2C, TABLE 1). […] The AAV8R12 was generated using the AAV8R plasmid as a template.
Mice were anesthetized with sodium pentobarbital (Nembutal; 80 mg/kg, i.p.), and then placed into a stereotaxic device (KOPF). Eye cream was applied on both corneas to avoid dehydration. The skull above the targeted areas was thinned with a dental drill and carefully removed. Injections were conducted with a 10 μL syringe connected to a 33-Gauge needle (Neuros; Hamilton), using a microsyringe pump (Legato 130, KD Scientific). A total volume of 200 nL virus was injected into the SNr at a speed of 20 nL/min. The coordinates for the SNr were 3.4 mm posterior, 1.3 mm lateral, 4.8 mm ventral to the bregma.
HEK293T cells (ATCC) were co-transfected by calcium phosphate with an AAV vector plasmid, an AAV Rep-Cap plasmid (rAAV2-retro, AAV1R, AAV5R, AAV6R, AAV8R, and AAV8R1-14), and the pAdDeltaF6 helper plasmid (Addgene, 112867) harboring the adenoviral genes required for the AAV life cycle. HEK293T cells grown in 15 cm cell culture dishes were co-transfected with the mixture of three plasmids (1:1:1) at 80% confluency. 48-72 hours post-transfection, cells were collected and resuspended in a buffer containing 150 mM NaCl and 100 mM Tris-HCl (pH 8.0). Cells were lysed by repeated freeze-thaw cycles in liquid nitrogen and a 37° C. water bath. AAV particles were purified and concentrated using Millipore Amicon 100K columns (Merck Millipore, UFC910008). Encapsidated viral DNA was quantitated by qPCR (Thermo Fisher) with primers recognizing the viral WPRE and/or ITR sequences following denaturation of the AAV particles using Proteinase K. Titers were calculated as genome copies per milliliter.
Images were acquired using a confocal microscope (Carl Zeiss, LSM880) and an Axiolmager.Z1 microscope with apotome (Carl Zeiss). Brain structures were identified microscopically and in digital photos using a mouse brain atlas. To analyze the number of EYFP+ cells in the striatum, slices from rostral to caudal striatum were used. Every sixth section was analyzed, and numbers of EYFP+ cells were multiplied by six to acquire the approximate total number and mean number of cells per animal. Images were processed using ImageJ (NIH, USA), and final quantifications were independently performed manually by two blinded experimenters.

Molecule	Activity Level SN (substantia nigra (SN))	Activity Level STR [1]	Labeling Efficiency in Striatonigral Pathway [2]
G88P2: 2259-bp promoter from the gene GPR88, SEQ ID NO: 59	+ (<5 k)	++++ (>25 k)	
B1			+ (<5 k)
B2			+ (<5 k)
B3			+ (<5 k)
B4			+ (<5 k)
B5			++ (5 k-10 k)
B6			+ (<5 k)
B7			+ (<5 k)
B8			+ (<5 k)
B9			+ (<5 k)
B10			+ (<5 k)
B11			+ (<5 k)
B12			++ (5 k-10 k)
B13			+ (<5 k)
